Patent US20130281374A1

Biological target: T1, human GIP receptor (human), P48546
T1 chain: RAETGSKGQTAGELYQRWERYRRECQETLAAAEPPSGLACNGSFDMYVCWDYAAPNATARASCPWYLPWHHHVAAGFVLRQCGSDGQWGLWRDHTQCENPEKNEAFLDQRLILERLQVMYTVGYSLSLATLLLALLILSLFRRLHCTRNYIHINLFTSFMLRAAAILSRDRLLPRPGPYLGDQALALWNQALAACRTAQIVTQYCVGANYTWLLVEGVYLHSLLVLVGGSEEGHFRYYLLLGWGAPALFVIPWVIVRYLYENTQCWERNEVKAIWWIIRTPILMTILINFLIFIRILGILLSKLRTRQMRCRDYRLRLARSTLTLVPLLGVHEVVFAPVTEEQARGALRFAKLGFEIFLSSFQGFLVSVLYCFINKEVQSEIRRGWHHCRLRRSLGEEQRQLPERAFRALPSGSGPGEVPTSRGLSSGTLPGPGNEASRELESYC
Assay: 125I-GIP displacement, HEK-GIPR membranes

% Inh 10 nM: 3%
Binder: HGEGTLISDYSIAMDKIHQQDFVNWLLAQKPKKIRYS (modifications not checked) [0601GIP4843]
